Experimental data reported in publication PMC9687980 (Bioengineering, 2022).

Experiments:
[1] = target: T1, MBP-fused spike receptor binding domain of SARS-CoV-2 Omicron BA.1 (MBP-RBDomi) (SARS-CoV-2 Omicron BA.1 (GenBank …, strain)); assay: ELISA; 4 ug of recombinant RBD immobilised on a high-binding plate; blocked with 4% skim milk; serial-diluted antibody in PBST; detected with Protein A-HRP, 450 nm; details: both partners purified
T1 construct: also called MBP-fused Omicron RBD; MBP-RBD_(omicron)

[2] = target: T2, spike RBD of SARS-CoV-2 Omicron expressed in a mammalian system (SARS-CoV-2 Omicron, taken as BA.1, strain, N-linked glycans appended on N331 and N343); assay: as above; details: both partners purified
T2 construct: also called Mammalian RBDomi; mammalian cell-expressing RBDomi

B1: CR3022, human IgG1 (antibody, V domains shown)
VH: QMQLVQSGTEVKKPGESLKISCKGSGYGFITYWIGWVRQMPGKGLEWMGIIYPGDSETRYSPSFQGQVTISADKSINTAYLQWSSLKASDTAIYYCAGGSGISTPMDVWGQGTTVTV
VL: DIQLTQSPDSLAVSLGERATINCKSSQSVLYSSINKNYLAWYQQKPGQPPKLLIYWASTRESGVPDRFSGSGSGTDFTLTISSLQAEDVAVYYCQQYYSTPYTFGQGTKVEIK
notes: IgG1
Question: Does B1 bind [1]?
Answer: binds

Question: Does B1 bind [2]?
Answer: binds
